Assay [1] concerns RGS2-HA. The assay can be described thus: Coimmunoprecipitation of FLAG-FBXO44 mutant with RGS2-HA. Format: cell-based. As to conditions: HEK-293T cells, HA tag IP, normalized to input, % of WT, three independent experiments. As to the method:
(§1) Figure 6 Point mutations disrupt the RGS2–FBXO44 association. Co-IP was performed in HEK-293T cells transiently transfected with RGS2-HA and FLAG-FBXO44 (WT and mutants as indicated). […] Representative blot and quantification of four independent experiments. […] Levels of each protein were normalized to input and expressed as % of WT. Representative blot and quantification of three independent experiments. ∗p < 0.05; ∗∗∗∗p < 0.0001 using Student's unpaired t test. Co-IP, coimmunoprecipitation; FBXO44, F-box only protein 44; RGS2, regulator of G protein signaling 2.
(§2) Cells were maintained in a humidified incubator at 37 °C with 5% CO2. HEK-293T cells were obtained from the American Type Culture Collection (ATCC; CRL-1573). The American Type Culture Collection cell lines are subjected to comprehensive and repeated authentication and contamination checks, ensuring confirmation of cell line identity and ensuring that it is free of contamination prior to supplying it to users. Cells underwent periodical (every 6 months) mycoplasma testing to ensure cell lines are not compromised. Cells were cultured in Dulbecco's modified Eagle's medium (Gibco, catalog no.: 11995) and supplemented with 10% fetal bovine serum (Gibco, catalog no.: 16000). Cells were transfected with DNA plasmids using Lipofectamine 3000 (Invitrogen) under reduced serum conditions in Opti-MEM (Gibco, catalog no.: 31985). […]

The test system of assay [2] is FBXO44. Particulars: ref [24]; cited from earlier work. The text has this:
However, evidence of a direct interaction between RGS2 and FBXO44 has, until now, not yet been established. Thus, we first aimed to verify that purified FBXO44 would bind the degron sequence in vitro. […] This also c ...

For assay [3], the system named is FBXO44. The assay can be described thus: siRNA-mediated FBXO44 knockdown, Western blot. Format: cell-based, human. As to conditions: HEK-293T cells; for RGS2 protein levels upon FBXO44 knockdown: FBXO44 siRNA, Fig. 7, D and F, three independent experiments. As to the method:
Using a pool of 4 siRNA oligos (siGENOME SMART Pools; Dharmacon/Revvity), we achieved ∼70% reduction in endogenous FBXO44 protein levels in HEK-293T cells (Fig. 7, D and E).
Cells were maintained in a humidified incubator at 37 °C with 5% CO2. HEK-293T cells were obtained from the American Type Culture Collection (ATCC; CRL-1573). The American Type Culture Collection cell lines are subjected to comprehensive and repeated authentication and contamination checks, ensuring confirmation of cell line identity and ensuring that it is free of contamination prior to supplying it to users. Cells underwent periodical (every 6 months) mycoplasma testing to ensure cell lines are not compromised. Cells were cultured in Dulbecco's modified Eagle's medium (Gibco, catalog no.: 11995) and supplemented with 10% fetal bovine serum (Gibco, catalog no.: 16000). Cells were transfected with DNA plasmids using Lipofectamine 3000 (Invitrogen) under reduced serum conditions in Opti-MEM (Gibco, catalog no.: 31985). Media were changed to Dulbecco's modified Eagle's medium supplemented with 0.5% fetal bovine serum after 4 to 6 h, and cells were harvested for experiments 24 h after transfection. siRNA transfections were performed under reduced serum conditions in Opti-MEM 24 h prior to DNA transfections at 40% to 60% confluency. Cells were transfected with siGENOME SMART-POOL siRNA (FBXO44, M-019201-01-0005; Nontargeting, D-001206-13-05) from Dharmacon (Revvity) using Lipofectamine RNAiMAX (Invitrogen). Experiments were performed 72 h after transfection.
Cells were harvested on ice in lysis buffer containing protease inhibitors (50 mM Tris–HCl [pH 7.4], 5 mM NaCl, 0.5 mM EDTA, 1% Triton X-100, 10% cOmplete Protease Inhibitor Cocktail EDTA-free). Lysates were bath sonicated for 10 min at 4 °C, centrifuged at 6000g for 3 min, and the supernatant was used for SDS-PAGE and immunoblotting. Total protein concentration was determined using the Pierce BCA Protein Assay Kit. Samples were diluted to 1 μg/μl in protein sample loading buffer (Li-Cor Biosciences). […]
(In general: In western blotting, separated proteins are transferred to a membrane and probed.)

In assay [4] the test system is HEK-293T cells. The assay can be described thus: RGS2 protein levels, baseline and with proteasome inhibitor MG-132. It is filed as cell-based, human. As to conditions: for change of RGS2 protein levels with MG-132 / change of RGS2 protein levels with MG-132 (Fig. S4): MG-132 10 μM, 4 h. The text has this: Representative Western blot and quantification of three independent experiments. […] Representative Western blot and quantification of three independent experiments. Representative Western blot (D), quantification of knockdown efficiency (E), and effects on RGS protein levels (F) when FBXO44 is knocked down using siRNA. […] Result of three independent experiments. ∗p < 0.05; ∗∗p < 0.01; ∗∗∗p < 0.001 using two-way ANOVA followed by Tukey's post hoc test for pairwise comparisons (C, E, and F). FBXO44, F-box only protein 44; HEK-293T, human embryonic kidney-293T cell line; RGS2, regulator of G protein signaling 2.
(§3) Cells were harvested on ice in lysis buffer containing protease inhibitors (50 mM Tris–HCl [pH 7.4], 5 mM NaCl, 0.5 mM EDTA, 1% Triton X-100, 10% cOmplete Protease Inhibitor Cocktail EDTA-free). Lysates were bath sonicated for 10 min at 4 °C, centrifuged at 6000g for 3 min, and the supernatant was used for SDS-PAGE and immunoblotting. Total protein concentration was determined using the Pierce BCA Protein Assay Kit. Samples were diluted to 1 μg/μl in protein sample loading buffer (Li-Cor Biosciences).
(§4) Equal amounts of protein in each lane were resolved on a 12% SDS-PAGE gel for 1 h at 160 V. Samples were transferred to an Immobilon-FL PVDF membrane (Millipore) and subjected to Western immunoblot analysis using Li-Cor blocking buffer for both blocking and antibody diluents. Membranes were blocked for 1 h, then incubated for 2 h in primary antibodies as described under “Antibodies,” and finally incubated for 1 h with IRDye secondary antibodies directed at the species of the primary antibody. Following each antibody incubation, membranes were washed four times in PBS with 0.1% Tween-20. Membranes were imaged using an Azure600 imaging system (Azure Biosystems).
Figure S4. Effect of RGS2 mutations on protein stability. Representative western blot and quantification of five or six independent experiments (varies by mutation). The proteasome inhibitor MG-132 (10 μM, 4 h) […]
P15R were predicted to destabilize RGS2, due to increased binding to FBXO44 in the peptide microarray. […]
significant. *P<0.05; ***P<0.001 using two-way ANOVA followed by Tukey’s post hoc test for pairwise

The subject of assay [5] is HEK-293T cells. The assay can be described thus: Cycloheximide (CHX) chase assay. It is filed as cell-based, human. As to conditions: for RGS2 protein half-life (t1/2): CHX 50 μM, Western blot, three independent experiments. On the procedure:
HEK-293T cells in 12-well plates, transiently transfected with either RGS2^WT or RGS2^C13S, were treated with CHX (50 μM) at indicated time points. Cells were harvested as described later and subjected to SDS-PAGE and Western blot.
as §3, §4

Assay [6] relates to FLAG-FBXO44. The assay can be described thus: Coimmunoprecipitation of RGS2-HA mutant with FLAG-FBXO44. It is filed as cell-based. Particulars: HEK-293T cells, HA tag IP, normalized to input, % of WT; four independent experiments. On the procedure: as §1, §2
Where [7] appears, read: Fig. 7, B and C, three independent experiments.
Where [8] appears, read: Fig. S4, five or six independent experiments.

The values below come from publication PMC12554172, “Systematic analysis of the RGS2 degron reveals characteristics of substrate recognition by the F-box protein FBXO44” (The Journal of Biological Chemistry, 2025).

Numbering of substitutions follows the chain as printed. Numbers in names are those of the source. Entries after “also recorded” stand apart in the source; their conditions may differ.

B1: FLAG-FBXO44^Y234A: FLAG-tagged FBXO44 with Y234A mutation (protein)
chain: MAVGNINELPENILLELFTHVPARQLLLNCRLVCSLWRDLIDLVTLWKRKCLREGFITEDWDQPVADWKIFYFLRSLHRNLLHNPCAEEGFEFWSLDVNGGDEWKVEDLSRDQRKEFPNDQVKKYFVTSYYTCLKSQVVDLKAEGYWEELMDTTRPDIEVKDWFAARPDCGSKYQLCVQLLSSAHAPLGTFQPDPATIQQKSDAKWREVSHTFSNYPPGVRYIWFQHGGVDTHAWAGWYGPRVTNSSITIGPPLP
modifications: left off: FLAG, end not stated, kept
notes: FLAG-tagged FBXO44 with Y234A mutation
As for B1, the entries for the “association with RGS2-HA (co-IP)” value in assay [1] and in assay [1] (listed as FBXO44^Y234A) were “associates significantly less” and “significantly reduced association”, respectively.

B2: RGS4: closely related RGS4, subject to proteasomal degradation by a different pathway (protein, UniProt P49798 1-205, looked up)
Regulator of G-protein …: MCKGLAGLPASCLRSAKDMKHRLGFLLQKSDSCEHNSSHNKKDKVVICQRVSQEEVKKWAESLENLISHECGLAAFKAFLKSEYSEENIDFWISCEEYKKIKSPSKLSPKAKKIYNEFISVQATKEVNLDSCTREETSRNMLEPTITCFDEAQKKIFNLMEKDSYRRFLKSRFYLDLVNPSSCGAEKQKGAKSSADCASLVPQCA
Take B2: the “co-IP with FBXO44” value in assay [2] was “does not coimmunoprecipitate with FBXO44”.

B3: RGS2^WT: full-length wild-type RGS2 expressed in HEK-293T cells (protein)
chain: MQSAMFLAVQHDCRPMDKSAGSGHKSEEKREKMKRTLLKDWKTRLSYFLQNSSTPGKPKTGKKSKQQAFIKPSPEEAQLWSEAFDELLASKYGLAAFRAFLKSEFCEENIEFWLACEDFKKTKSPQKLSSKARKIYTDFIEKEAPKEINIDFQTKTLIAQNIQEATSGCFTTAQKRVYSLMENNSYPRFLESEFYQDLCKKPQITTEPHAT
modifications: left off: HA, end not stated, kept
notes: full-length wild-type RGS2 expressed in HEK-293T cells
As for B3, in assay [3], the “RGS2 protein levels upon FBXO44 knockdown” value is given as “significantly increases; also recorded: significant increase”. Besides, in assay [4] (setting [7]), the “change of RGS2 protein levels with MG-132” value is recorded as “significantly enhanced”. Moreover, in assay [4] (setting [8]), the “change of RGS2 protein levels with MG-132 (Fig. S4)” value is reported as “significantly increases”. Moreover, the “RGS2 protein half-life (t1/2)” value in assay [5] (transfected HEK-293T) was found to be 19.5 min.

B4: RGS2^C13S: full-length RGS2 with C13S mutation (protein)
chain: B3 chain with C13S
modifications: left off: HA, end not stated, kept
notes: full-length RGS2 with C13S mutation
For the molecule B4, the “RGS2 protein levels upon FBXO44 knockdown” value in assay [3] was “significantly increases RGS2^WT but not RGS2^C13S protein levels; also recorded: significant increase in RGS2^WT but not RGS2^C13S protein levels”. In addition, in assay [3] (Fig. 7F), the “RGS2^C13S expression level versus RGS2^WT in siRNA experiments” value is given as “significantly higher levels than RGS2^WT”. Also, in assay [4] (setting [7]), the “change of RGS2 protein levels with MG-132” value is on record as “not significantly changed; also recorded: does not significantly change”. In addition, the “basal RGS2 protein level versus RGS2^WT” value in assay [4] (no MG-132, Fig. 7, B and C, three independent experiments) was “increased protein levels at baseline; however, this increase was not statistically significant; also recorded: upward trend in basal expression”. In assay [5] (CHX chase, RGS2^C13S versus RGS2^WT), the “extension of RGS2 protein half-life versus RGS2^WT” value is on record as “almost twofold; also recorded: almost double that of RGS2^WT”. The “RGS2 protein stability versus RGS2^WT (in words)” value in assay [5] (CHX chase, transfected HEK-293T) is on record as “significantly stabilized”. Also, the “RGS2 protein half-life (t1/2)” value in assay [5] (transfected HEK-293T) is on record as 33.5 min.

B5: RGS2^D12R: full-length RGS2 with D12R mutation (protein, UniProt P41220 1-211, looked up, variant D12R)
chain: B3 chain with D12R
modifications: full-length
notes: full-length RGS2 with D12R mutation
On to B5, for which the “change of RGS2 protein levels with MG-132 (Fig. S4)” value in assay [4] (setting [8]) is “none of these mutations resulted in significant changes in basal expression or response to MG-132”. In addition, the “basal RGS2 protein expression versus RGS2^WT (Fig. S4)” value in assay [4] (no MG-132, Fig. S4, five or six independent experiments) is listed as “trend toward lower basal expression”.

B6: RGS2^C13S-HA: HA-tagged RGS2 with C13S mutation (protein)
chain: B3 chain with C13S
modifications: left off: HA, end not stated, kept
notes: HA-tagged RGS2 with C13S mutation
For B6, the “association with FLAG-FBXO44 (co-IP)” value in assay [6] is given as “significantly reduced association; also recorded: associates significantly less”.
